{"source": "paper PMC2169363", "key": {"[1]": {"target": "phosphorylated smooth muscle myosin (chicken gizzard) (chicken) (UniProt P10587)", "assay": "co-sedimentation"}, "[2]": {"target": "unphosphorylated smooth muscle myosin (chicken gizzard) (chicken) (UniProt P10587)", "assay": "co-sedimentation"}}, "data": [{"substance": "38k protein (native, purified from chicken gizzard smooth muscle) (natural protein)", "values": [{"measurement": "EC50", "setting": "[1]", "result": 1400, "unit": "nM"}, {"measurement": "EC50", "setting": "[2]", "result": 1700, "unit": "nM"}]}, {"substance": "human p32 (recombinant) (from UniProt Q07021 74-282) (natural protein)", "values": [{"measurement": "EC50", "setting": "[2]", "result": 1800, "unit": "nM"}]}, {"substance": "recombinant 38k protein, full-length (1-207) (natural protein)", "values": [{"measurement": "amount recovered in the precipitate with 1.1 μM myosin (4.0 μM added)", "setting": "[2]", "result": 1, "unit": "µM"}]}]}
